According to patent publication US20090149389A1 (PURDUE RESEARCH FOUNDATION, published 2009):

Legend:
Experiment in all cases: cell-based or functional assay
IGF-IR (h) = IGF-IR (h) (human (h), UniProt P08069 959-1367, limits assumed)
MSK2 (h) = MSK2 (h) (human (h), UniProt O75676 1-772, limits assumed)
MKK6 (h) = molecular target: T1, MKK6 (h) (human (h), UniProt P52564 1-334, limits assumed)
T1 sequence (looked up): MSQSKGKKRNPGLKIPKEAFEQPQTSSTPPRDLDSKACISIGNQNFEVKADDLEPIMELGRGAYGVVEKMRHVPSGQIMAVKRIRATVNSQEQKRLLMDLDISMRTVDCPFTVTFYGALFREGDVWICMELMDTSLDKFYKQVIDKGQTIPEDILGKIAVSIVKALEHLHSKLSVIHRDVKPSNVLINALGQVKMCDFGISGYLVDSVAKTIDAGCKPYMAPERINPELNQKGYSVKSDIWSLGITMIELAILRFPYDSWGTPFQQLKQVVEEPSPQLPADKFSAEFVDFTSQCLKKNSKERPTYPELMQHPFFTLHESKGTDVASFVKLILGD

Src(1-530) (h) = Src(1-530) (h) (human (h), UniProt P12931 1-530)
L1MK1 (h) = L1MK1 (h) (human (h), UniProt P53667 285-638, limits assumed)
L1MK1 (h), sequence (P53667 285-638 limits assumed): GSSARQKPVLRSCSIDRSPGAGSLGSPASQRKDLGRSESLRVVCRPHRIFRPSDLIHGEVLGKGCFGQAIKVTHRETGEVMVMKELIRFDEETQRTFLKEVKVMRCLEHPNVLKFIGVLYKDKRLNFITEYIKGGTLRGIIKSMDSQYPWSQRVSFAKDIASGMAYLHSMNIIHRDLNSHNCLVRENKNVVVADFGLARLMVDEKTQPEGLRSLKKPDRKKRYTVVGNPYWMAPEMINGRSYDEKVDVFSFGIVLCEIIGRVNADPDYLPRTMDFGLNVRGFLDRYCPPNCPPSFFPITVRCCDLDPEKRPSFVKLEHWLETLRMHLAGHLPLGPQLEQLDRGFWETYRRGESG

CK2 (h) = CK2 (h) (human (h), UniProt P68400 1-391)
CK2 (h), sequence (P68400 whole entry): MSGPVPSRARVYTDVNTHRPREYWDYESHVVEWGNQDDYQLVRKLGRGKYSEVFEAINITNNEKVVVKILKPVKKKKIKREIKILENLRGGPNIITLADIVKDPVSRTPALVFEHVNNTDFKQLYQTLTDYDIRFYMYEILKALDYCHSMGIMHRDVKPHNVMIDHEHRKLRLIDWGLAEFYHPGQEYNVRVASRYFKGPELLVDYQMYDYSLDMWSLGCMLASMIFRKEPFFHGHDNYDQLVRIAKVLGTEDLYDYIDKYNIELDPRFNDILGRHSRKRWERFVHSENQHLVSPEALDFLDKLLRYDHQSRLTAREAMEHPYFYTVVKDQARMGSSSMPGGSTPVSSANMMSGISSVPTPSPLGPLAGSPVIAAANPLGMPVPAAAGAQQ

TrkA (h) = TrkA (h) (human (h), UniProt P04629 441-796, limits assumed)
TrkA (h), sequence (P04629 441-796 limits assumed): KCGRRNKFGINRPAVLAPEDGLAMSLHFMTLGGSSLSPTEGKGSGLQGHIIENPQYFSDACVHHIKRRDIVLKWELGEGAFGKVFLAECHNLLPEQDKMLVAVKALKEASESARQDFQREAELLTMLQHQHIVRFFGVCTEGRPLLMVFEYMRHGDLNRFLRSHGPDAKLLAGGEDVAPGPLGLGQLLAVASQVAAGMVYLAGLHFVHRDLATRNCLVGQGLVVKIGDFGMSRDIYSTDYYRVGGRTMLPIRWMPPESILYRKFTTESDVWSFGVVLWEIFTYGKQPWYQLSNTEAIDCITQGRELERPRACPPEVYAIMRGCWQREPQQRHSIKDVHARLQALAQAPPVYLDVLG

Flt3 (h) = molecular target: T2, Flt3 (h) (human (h), UniProt P36888 564-993, limits assumed)
T2 sequence (looked up): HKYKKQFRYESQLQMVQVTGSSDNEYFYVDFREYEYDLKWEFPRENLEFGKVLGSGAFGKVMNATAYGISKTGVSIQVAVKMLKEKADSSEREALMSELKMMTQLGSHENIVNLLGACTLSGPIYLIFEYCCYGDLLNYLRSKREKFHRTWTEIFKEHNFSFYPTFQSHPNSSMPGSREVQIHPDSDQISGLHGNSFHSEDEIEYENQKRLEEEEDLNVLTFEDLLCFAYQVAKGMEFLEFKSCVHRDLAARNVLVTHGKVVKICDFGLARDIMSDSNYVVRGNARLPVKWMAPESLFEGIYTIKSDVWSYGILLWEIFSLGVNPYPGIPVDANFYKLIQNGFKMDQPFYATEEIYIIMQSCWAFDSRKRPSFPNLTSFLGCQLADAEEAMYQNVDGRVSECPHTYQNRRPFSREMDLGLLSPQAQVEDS

PKG1β (h) = molecular target: T3, PKG1β (h) (human (h), UniProt Q13976-2 1-686)
T3 sequence (looked up): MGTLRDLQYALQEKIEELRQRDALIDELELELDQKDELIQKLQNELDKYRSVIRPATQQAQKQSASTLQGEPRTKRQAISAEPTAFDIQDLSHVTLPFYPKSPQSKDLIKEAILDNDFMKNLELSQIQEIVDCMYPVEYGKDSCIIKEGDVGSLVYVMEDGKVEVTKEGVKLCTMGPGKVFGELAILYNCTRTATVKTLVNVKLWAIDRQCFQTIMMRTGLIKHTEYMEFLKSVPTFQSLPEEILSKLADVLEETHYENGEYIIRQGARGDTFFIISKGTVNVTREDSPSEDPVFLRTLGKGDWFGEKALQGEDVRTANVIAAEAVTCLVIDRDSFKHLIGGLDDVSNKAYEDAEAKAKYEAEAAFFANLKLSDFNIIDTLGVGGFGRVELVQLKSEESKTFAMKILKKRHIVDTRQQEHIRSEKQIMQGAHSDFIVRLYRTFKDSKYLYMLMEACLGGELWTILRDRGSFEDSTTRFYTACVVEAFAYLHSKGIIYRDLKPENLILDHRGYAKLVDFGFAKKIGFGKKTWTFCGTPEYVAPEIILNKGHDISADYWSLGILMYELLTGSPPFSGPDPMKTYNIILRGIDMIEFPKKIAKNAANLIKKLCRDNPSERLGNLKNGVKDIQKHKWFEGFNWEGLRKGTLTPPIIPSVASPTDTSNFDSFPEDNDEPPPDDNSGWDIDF

Tie2 (h) = Tie2 (h) (human (h), UniProt Q02763 771-1124, limits assumed)
Tie2 (h), sequence (Q02763 771-1124 limits assumed): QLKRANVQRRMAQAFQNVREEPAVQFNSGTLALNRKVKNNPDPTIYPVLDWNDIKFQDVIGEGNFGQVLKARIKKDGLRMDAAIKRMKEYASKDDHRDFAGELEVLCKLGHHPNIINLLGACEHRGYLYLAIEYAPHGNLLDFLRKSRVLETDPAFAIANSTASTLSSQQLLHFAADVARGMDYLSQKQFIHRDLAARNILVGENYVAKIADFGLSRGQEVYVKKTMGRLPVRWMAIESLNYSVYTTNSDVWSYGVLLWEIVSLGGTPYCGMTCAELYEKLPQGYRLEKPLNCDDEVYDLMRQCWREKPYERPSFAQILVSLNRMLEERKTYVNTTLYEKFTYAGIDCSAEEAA

DYRK2 (h) = molecular target: T4, DYRK2 (h) (human (h), UniProt Q92630 1-601, limits assumed)
T4 sequence (looked up): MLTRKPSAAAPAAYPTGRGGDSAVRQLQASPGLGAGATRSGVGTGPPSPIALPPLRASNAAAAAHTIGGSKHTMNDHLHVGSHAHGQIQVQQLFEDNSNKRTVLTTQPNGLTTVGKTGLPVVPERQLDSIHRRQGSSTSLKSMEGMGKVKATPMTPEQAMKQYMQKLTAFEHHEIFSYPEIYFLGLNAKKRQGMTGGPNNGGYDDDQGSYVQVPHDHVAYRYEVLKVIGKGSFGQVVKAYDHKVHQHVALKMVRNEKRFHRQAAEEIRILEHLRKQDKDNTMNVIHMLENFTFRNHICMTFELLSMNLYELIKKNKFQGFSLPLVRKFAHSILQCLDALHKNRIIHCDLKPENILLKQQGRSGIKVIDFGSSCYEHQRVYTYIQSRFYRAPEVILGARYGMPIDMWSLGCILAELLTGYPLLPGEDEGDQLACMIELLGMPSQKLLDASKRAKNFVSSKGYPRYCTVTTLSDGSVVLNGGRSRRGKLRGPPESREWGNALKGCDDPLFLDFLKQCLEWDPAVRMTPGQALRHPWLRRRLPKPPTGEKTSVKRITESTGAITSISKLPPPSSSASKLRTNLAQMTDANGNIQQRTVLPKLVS

BTK (h) = BTK (h) (human (h), UniProt Q06187 1-659)
BTK (h), sequence (Q06187 whole entry): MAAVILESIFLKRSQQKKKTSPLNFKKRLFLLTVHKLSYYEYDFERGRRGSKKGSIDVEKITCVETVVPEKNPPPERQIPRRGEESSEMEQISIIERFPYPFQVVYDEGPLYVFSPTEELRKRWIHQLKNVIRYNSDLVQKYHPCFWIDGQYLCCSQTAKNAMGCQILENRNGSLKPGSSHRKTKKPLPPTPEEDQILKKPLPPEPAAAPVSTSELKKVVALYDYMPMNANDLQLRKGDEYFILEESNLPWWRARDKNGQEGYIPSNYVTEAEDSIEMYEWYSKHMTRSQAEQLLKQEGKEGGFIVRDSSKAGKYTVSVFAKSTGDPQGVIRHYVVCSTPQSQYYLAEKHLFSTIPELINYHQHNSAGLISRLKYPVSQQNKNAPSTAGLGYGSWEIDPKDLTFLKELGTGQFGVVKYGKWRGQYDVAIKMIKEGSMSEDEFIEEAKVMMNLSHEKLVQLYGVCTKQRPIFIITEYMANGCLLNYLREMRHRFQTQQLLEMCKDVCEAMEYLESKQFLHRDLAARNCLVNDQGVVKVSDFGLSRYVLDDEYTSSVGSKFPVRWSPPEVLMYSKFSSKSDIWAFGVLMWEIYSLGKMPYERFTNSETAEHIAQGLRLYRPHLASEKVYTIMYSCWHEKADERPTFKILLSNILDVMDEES

MAPKAP-K3 (h) = MAPKAP-K3 (h) (human (h), UniProt Q16644 1-382, limits assumed)
MAPKAP-K3 (h), sequence (Q16644 whole entry): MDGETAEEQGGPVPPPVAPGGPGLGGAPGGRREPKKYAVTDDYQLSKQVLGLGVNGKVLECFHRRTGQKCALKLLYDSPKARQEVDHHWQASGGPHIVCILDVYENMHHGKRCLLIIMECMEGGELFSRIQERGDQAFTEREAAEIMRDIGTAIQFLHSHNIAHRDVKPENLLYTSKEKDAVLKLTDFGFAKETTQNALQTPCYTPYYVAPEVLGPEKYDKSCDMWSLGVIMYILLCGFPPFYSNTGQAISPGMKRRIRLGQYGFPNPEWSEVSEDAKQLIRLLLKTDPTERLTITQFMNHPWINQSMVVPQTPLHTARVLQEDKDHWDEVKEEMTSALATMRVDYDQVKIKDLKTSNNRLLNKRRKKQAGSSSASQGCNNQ

Syk (h) = Syk (h) (human (h), UniProt P43405 1-635)
CKIB (h) = CKIB (h) (human (h))

MSK2 (h), sequence (O75676 whole entry): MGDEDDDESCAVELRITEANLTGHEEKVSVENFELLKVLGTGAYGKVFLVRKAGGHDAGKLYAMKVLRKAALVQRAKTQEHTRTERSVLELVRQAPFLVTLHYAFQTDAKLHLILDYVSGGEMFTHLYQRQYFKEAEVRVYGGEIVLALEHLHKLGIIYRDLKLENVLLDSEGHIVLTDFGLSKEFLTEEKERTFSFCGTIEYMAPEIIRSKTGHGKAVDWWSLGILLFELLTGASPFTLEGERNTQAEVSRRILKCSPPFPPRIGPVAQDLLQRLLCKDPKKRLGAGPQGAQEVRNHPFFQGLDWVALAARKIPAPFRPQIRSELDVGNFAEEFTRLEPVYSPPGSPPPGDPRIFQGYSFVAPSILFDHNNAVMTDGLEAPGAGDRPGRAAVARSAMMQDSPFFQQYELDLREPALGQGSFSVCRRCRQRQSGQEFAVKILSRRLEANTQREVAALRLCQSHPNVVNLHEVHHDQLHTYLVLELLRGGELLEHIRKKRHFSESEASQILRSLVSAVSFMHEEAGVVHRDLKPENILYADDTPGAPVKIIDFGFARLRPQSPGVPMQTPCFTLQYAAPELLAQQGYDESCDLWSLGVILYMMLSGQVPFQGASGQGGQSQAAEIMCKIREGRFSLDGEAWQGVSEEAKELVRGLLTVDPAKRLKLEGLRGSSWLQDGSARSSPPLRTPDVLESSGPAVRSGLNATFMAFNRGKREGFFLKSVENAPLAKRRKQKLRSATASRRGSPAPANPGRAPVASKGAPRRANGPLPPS
IGF-IR (h), sequence (P08069 959-1367 limits assumed): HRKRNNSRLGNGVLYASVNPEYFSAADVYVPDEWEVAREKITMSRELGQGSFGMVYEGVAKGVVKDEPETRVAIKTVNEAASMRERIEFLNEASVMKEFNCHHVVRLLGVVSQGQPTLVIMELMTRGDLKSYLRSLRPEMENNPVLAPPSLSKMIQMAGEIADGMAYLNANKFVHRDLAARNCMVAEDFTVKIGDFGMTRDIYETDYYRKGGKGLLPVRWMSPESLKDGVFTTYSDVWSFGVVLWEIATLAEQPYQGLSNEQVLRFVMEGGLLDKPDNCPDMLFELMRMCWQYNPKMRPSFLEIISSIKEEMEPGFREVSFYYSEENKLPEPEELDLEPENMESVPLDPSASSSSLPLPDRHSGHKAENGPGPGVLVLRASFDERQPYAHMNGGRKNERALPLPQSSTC

For FAKLAARLYRKALARQLGVAA, which “Profile-1 @ = 100 µm (kinase profiler assay)” value (from here on “Profile-1 @ = 100 µm”) (IGF-IR (h)) is on record?
Its value is 69.

And the “Profile-1 @ = 100 µm” value (MSK2 (h))?
Its value is 24.

What about the “Profile-1 @ = 100 µm” value (MKK6 (h)) of the same binder?
Its value is 42.

And the “Profile-1 @ = 100 µm” value (Src(1-530) (h))?
Its value is 5.

And the “Profile-1 @ = 100 µm” value (L1MK1 (h))?
Its value is 92.

What about the “Profile-1 @ = 100 µm” value (CK2 (h)) of the same binder?
The value was 80.

And the “Profile-1 @ = 100 µm” value (TrkA (h))?
The value was 17.

What about the “Profile-1 @ = 100 µm” value (Flt3 (h)) of the same binder?
Its value is 14.

What about the “Profile-1 @ = 100 µm” value (PKG1β (h)) of the same binder?
Its value is 15.

What about the “Profile-1 @ = 100 µm” value (Tie2 (h)) of the same binder?
Its value is 0.

What about the “Profile-1 @ = 100 µm” value (DYRK2 (h)) of the same binder?
Its value is -11.

What about the “Profile-1 @ = 100 µm” value (BTK (h)) of the same binder?
The value was 19.

And the “Profile-1 @ = 100 µm” value (MAPKAP-K3 (h))?
Its value is 10.

What about the “Profile-1 @ = 100 µm” value (Syk (h)) of the same binder?
Its value is 38.

And the “Profile-1 @ = 100 µm” value (CKIB (h))?
The value was 99.
